# Ends that are not written are not given here. * marks the point of attachment. Biotin = O=C1N[C@H]2[C@H](CS[C@H]2CCCCC(=O)*)N1
# Legend:
# Experiment in all cases: G' assay (10 uM PL peptide), results of TABLE 7 and TABLE 12
# Format in all cases: binding
# [1] = biological target: T1, PDZ protein (GST-PDZ fusion) (Homo sapiens, UniProt Q12923); conditions: PDZ PTPL-1, PDZ Domain 4
# T1 construct: made in house; host or cells: E. coli (DH5alpha, BL21 or JM109)
# Source text: (§1) Each page of TABLE 7 and 12 includes seven columns. The columns in each table are numbered from left to right such that the left-most column in each table is column 1 and the right-most column in each table is column 7. Thus, the first column in each table is labeled “AVC ID”; this column simply lists an internal reference number used to refer to the carboxyl-terminal amino acids of the PL proteins listed in the second column. […] All PL peptides were biotinylated at the amino-terminus and the sequences of these PL peptides are presented in TABLE 8 (see end of specification).
# (§2) This column provides the gene name for the PDZ portion of the GST-PDZ fusion that interacts with the PDZ-ligand to the left. For PDZ domain-containing proteins with multiple domains, the domain number is listed to the right of the PDZ (i.e., in column 5 labeled “PDZ Domain”), and indicates the PDZ domain number when numbered from the amino-terminus to the carboxy-terminus.
# (§3) The third column labeled “Peptide Optimal Concentration” in the tables is a number reflective of the binding interaction between the PL protein and PDZ protein. […] The column labeled “Protein Optimal Concentration” refers to the protein concentration used to assay PL interaction (in ug/ml); a ‘0’ is indicative of 5 ug/ml protein concentration; any other value represents the concentration (in ug/ml) used to determine the dissociation constant for a given interaction.
# (§4) Finally, the seventh column labeled “Classification” is another measure of the level of binding. In particular, it provides an absorbance value at 450 nm which indicates the amount of PL peptide bound to the PDZ protein. The following numerical values have the following meanings: ‘1’—A450 nm 0-1; ‘2’—A450 nm 1-2; ‘3’—A450 nm 2-3; ‘4’—A450 nm 3-4; ‘5’—A450 nm of 4 more than 2× repeated; ‘0’—A450 nm 0, i.e., not found to interact. Thus, higher numbers indicate stronger interactions.
# (§5) For convenience, the assay conditions described in this section are referred to as the “G′ assay” and the “G″ assay,” with the specific conditions described in the preceding section on G assays being referred to as the “G^0 assay.” The “G′ assay” is identical to the “G^0 assay” except at step (2) the peptide concentration is 10 uM instead of 20 uM.
# [2] = biological target: T2, PDZ protein (GST-PDZ fusion) (Homo sapiens, UniProt Q02410)
# T2 construct: made in house; host or cells: E. coli (DH5alpha, BL21 or JM109)
# T2 sequence (Q02410 1-837): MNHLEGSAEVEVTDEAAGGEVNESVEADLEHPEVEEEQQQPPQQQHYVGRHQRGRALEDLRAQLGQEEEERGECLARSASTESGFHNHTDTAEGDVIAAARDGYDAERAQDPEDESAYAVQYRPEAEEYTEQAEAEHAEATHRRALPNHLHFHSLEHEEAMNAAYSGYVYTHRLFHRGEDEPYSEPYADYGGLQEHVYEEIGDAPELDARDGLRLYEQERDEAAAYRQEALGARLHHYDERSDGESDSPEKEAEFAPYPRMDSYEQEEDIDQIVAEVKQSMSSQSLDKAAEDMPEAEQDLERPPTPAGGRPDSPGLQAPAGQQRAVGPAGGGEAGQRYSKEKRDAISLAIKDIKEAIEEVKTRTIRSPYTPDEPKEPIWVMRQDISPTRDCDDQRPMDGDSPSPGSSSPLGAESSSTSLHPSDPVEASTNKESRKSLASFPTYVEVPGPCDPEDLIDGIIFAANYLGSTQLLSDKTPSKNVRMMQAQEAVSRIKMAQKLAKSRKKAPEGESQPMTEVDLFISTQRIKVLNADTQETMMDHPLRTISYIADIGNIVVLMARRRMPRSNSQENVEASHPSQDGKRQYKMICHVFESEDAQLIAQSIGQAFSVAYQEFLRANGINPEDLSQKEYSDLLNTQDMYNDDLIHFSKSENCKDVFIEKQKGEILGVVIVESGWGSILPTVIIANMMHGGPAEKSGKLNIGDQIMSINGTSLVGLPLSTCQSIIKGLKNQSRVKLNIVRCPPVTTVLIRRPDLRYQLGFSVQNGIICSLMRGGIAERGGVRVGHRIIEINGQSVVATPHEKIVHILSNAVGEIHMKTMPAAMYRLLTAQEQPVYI
# Source text: as §1, §2, §3, §4, §5
# [3] = biological target: T3, PDZ protein (GST-PDZ fusion) (Homo sapiens, UniProt Q8NI35); conditions: PDZ INADL, PDZ Domain 8
# T3 construct: made in house; host or cells: E. coli (DH5alpha, BL21 or JM109)
# T3 sequence (Q8NI35 whole entry, the tested form may be a part): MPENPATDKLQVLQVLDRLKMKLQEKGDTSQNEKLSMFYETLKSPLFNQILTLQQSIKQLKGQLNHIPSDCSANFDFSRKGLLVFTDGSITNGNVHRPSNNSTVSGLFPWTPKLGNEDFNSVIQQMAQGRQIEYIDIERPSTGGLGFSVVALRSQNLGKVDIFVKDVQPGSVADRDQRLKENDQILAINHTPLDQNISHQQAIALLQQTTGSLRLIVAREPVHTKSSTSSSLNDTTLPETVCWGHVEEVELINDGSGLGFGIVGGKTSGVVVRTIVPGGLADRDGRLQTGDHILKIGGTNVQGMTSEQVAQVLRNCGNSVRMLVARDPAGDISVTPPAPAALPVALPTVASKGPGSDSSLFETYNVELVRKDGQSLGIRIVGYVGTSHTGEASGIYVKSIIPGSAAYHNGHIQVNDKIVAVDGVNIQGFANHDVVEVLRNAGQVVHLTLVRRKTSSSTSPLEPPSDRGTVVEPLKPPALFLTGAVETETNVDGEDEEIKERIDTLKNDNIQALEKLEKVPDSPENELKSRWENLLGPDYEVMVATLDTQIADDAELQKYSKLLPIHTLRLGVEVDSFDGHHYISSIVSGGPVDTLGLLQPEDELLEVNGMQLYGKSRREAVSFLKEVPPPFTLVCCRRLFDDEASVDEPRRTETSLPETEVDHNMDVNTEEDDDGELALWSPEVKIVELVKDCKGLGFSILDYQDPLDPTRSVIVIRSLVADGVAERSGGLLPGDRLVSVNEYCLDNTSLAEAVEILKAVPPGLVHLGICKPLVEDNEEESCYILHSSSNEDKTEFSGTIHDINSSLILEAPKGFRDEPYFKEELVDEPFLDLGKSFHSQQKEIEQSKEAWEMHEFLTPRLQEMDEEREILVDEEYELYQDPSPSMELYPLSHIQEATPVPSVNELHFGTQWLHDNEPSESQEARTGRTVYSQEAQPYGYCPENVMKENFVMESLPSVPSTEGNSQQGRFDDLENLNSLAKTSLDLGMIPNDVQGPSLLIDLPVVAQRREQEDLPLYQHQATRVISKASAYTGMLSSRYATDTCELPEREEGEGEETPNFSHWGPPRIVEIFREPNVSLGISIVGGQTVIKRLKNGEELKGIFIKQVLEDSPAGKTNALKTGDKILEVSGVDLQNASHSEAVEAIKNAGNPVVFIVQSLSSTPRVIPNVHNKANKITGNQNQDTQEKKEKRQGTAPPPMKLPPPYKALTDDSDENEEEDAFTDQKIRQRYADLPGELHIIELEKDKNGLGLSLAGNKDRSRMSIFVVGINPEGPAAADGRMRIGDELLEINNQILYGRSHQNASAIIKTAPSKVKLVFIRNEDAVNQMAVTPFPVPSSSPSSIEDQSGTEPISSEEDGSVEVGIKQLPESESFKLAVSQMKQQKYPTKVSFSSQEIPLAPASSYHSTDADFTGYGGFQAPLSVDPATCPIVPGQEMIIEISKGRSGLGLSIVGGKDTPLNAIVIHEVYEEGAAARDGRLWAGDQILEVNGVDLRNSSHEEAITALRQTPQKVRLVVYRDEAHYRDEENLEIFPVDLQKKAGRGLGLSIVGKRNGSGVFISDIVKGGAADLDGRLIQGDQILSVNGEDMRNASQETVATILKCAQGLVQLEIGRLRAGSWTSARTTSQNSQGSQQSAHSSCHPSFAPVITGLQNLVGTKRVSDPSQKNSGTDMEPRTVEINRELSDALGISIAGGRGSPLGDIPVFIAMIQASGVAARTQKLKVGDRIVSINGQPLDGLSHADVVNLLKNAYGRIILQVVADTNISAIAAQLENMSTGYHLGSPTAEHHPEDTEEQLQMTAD
# Source text: as §1, §2, §3, §4, §5
# [4] = biological target: T4, PDZ protein (GST-PDZ fusion) (Homo sapiens, UniProt O15018); conditions: PDZ AIPC, PDZ Domain 1
# T4 construct: made in house; host or cells: E. coli (DH5alpha, BL21 or JM109)
# Source text: as §1, §2, §3, §4, §5
# [5] = biological target: T5, PDZ protein (GST-PDZ fusion) (Homo sapiens, UniProt Q6P0Q8)
# T5 construct: made in house; host or cells: E. coli (DH5alpha, BL21 or JM109)
# T5 sequence (Q6P0Q8 whole entry, the tested form may be a part): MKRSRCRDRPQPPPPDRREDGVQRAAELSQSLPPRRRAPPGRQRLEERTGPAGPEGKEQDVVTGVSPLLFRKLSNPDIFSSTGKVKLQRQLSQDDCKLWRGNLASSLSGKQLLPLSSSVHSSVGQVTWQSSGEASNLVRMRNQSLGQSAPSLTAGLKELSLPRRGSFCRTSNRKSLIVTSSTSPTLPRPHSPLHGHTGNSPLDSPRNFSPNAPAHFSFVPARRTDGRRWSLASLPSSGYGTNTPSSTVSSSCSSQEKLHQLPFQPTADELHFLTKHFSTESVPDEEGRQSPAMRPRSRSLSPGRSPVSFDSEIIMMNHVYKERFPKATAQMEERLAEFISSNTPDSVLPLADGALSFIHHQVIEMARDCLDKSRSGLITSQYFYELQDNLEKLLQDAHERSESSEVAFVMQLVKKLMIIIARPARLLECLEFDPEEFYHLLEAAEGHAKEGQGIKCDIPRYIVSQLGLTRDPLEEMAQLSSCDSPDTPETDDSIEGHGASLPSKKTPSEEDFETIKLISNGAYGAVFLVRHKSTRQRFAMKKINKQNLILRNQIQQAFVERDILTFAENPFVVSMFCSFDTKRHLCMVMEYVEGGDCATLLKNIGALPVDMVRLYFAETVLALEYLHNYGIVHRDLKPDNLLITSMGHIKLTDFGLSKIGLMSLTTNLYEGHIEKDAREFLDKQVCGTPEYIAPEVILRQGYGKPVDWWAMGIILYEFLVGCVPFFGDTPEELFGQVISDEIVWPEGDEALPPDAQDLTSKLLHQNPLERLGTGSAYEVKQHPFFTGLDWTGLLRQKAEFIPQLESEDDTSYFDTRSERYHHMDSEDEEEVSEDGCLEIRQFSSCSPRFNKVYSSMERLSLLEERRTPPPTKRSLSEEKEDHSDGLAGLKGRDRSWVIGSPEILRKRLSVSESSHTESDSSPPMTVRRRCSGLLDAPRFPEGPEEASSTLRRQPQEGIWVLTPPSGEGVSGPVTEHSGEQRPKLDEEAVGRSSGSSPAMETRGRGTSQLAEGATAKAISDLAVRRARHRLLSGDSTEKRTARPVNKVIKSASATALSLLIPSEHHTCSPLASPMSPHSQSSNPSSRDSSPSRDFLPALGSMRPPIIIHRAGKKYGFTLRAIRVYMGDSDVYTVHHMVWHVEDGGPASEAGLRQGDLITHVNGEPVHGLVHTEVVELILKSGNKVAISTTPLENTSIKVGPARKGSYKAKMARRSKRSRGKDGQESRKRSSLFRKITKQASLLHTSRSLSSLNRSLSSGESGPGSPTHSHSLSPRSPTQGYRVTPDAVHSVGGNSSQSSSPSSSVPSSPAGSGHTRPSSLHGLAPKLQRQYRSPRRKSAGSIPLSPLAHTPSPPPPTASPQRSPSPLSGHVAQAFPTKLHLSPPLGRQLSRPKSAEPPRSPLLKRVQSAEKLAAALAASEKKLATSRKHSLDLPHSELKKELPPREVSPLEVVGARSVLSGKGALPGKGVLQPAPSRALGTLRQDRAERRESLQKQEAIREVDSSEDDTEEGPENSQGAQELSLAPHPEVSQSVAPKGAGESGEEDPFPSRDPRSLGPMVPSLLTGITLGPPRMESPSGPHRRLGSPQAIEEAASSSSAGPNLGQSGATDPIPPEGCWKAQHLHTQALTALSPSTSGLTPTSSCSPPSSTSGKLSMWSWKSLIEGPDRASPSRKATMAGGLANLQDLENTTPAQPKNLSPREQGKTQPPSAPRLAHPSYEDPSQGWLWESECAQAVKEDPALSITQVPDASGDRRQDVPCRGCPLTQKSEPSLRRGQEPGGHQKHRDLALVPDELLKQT
# Source text: as §1, §2, §3, §4, §5
# [6] = tested on: PDZ protein (GST-PDZ fusion)
# Source text: as §1, §2, §3, §4, §5
# [7] = biological target: T6, PDZ protein (GST-PDZ fusion) (Homo sapiens, UniProt O75970); conditions: PDZ MUPP-1, PDZ Domain 10
# T6 construct: made in house; host or cells: E. coli (DH5alpha, BL21 or JM109)
# Source text: as §1, §2, §3, §4, §5
# [8] = PDZ KIAA807, PDZ Domain not given
sequence,measurement,setting,value
PRLKRMQQFEDLEDEIPQFV (Biotin-PRLKRMQQFEDLEDEIPQFV) [RhoGAP 1 (PTPL1-associated)],Classification,[1],2 (A450 nm 1-2)
KAGYRAPRSYPKSNSSKEYV (Biotin-KAGYRAPRSYPKSNSSKEYV) [claudin 7],Classification,"[2]; PDZ Mint 1, PDZ Domain 1, 2",4 (A450 nm 3-4)
LGYSIPSRSGASGLDKRDYV (Biotin-LGYSIPSRSGASGLDKRDYV) [claudin 9],Classification,"[2]; PDZ Mint 1, PDZ Domain 1, 2",1 (A450 nm 0-1)
SYPTPRPYPKPAPSSGKDYV (Biotin-SYPTPRPYPKPAPSSGKDYV) [claudin 1],Classification,"[2]; PDZ Mint 1, PDZ Domain 2",1 (A450 nm 0-1)
same,Classification,[3],1 (A450 nm 0-1)
VISKATPALPTVSISSSAEV (Biotin-VISKATPALPTVSISSSAEV) [Clasp-1],Classification,[4],1 (A450 nm 0-1)
same,Classification,"[2]; PDZ Mint 1, PDZ Domain 1, 2",1 (A450 nm 0-1)
same,Classification,"[5]; PDZ KIAA0807(S), PDZ Domain 1",1 (A450 nm 0-1)
same,Classification,[5]; [8],1 (A450 nm 0-1)
RDSFHRSSFRKAETQLSQGS (Biotin-RDSFHRSSFRKAETQLSQGS) [Clasp-5],Classification,[5]; PDZ KIAA807,1 (A450 nm 0-1)
same,Classification,"[5]; PDZ KIAA0807(S), PDZ Domain 1",1 (A450 nm 0-1)
same,Classification,"[6]; PDZ BAI-1, PDZ Domain 2",1 (A450 nm 0-1)
same,Classification,"[6]; PDZ SHANK, PDZ Domain 1",1 (A450 nm 0-1)
SPQPDSTDNDDYDDISAA (Biotin-SPQPDSTDNDDYDDISAA) [CD6],Classification,"[5]; PDZ KIAA0807(S), PDZ Domain 1",1 (A450 nm 0-1)
same,Classification,[5]; [8],1 (A450 nm 0-1)
IVFIHSFLSAKVTRLGLLA (Biotin-IVFIIHSFLSAKVTRLGLLA) [alpha-1-syntrophin],Classification,"[5]; PDZ KIAA0807(S), PDZ Domain 1",1 (A450 nm 0-1)
ENLELPVNPSSVVSERISSV (Biotin-ENLELPVNPSSVVSERISSV) [serotonin receptor 5-HT-2C],Classification,[7],1 (A450 nm 0-1)
same,Classification,[3],1 (A450 nm 0-1)

# Source: patent US20050282743A1, “Molecular interactions in cells” (Arbor Vita Corporation, priority 2001, published 2005)
